Data published in patent US20200155602A1 (IMMATICS BIOTECHNOLOGIES, published 2020).

B1: GLAGGFGGPGFPV (peptide)
peptide: GLAGGFGGPGFPV
B2: ALDTFSVQV (peptide)
peptide: ALDTFSVQV
B3: ALKDSVQRA (peptide)
peptide: ALKDSVQRA
B4: YLAEPQWAV (peptide)
peptide: YLAEPQWAV
B5: YLYPDLSRL (peptide)
peptide: YLYPDLSRL
B6: … (peptide)
peptide: TLVDENQSWYL
notes: also called TLVDENQSWYL
B7: YLINEIDRIRA (peptide)
peptide: YLINEIDRIRA
B8: SLPESGLLSV (peptide)
peptide: SLPESGLLSV
B9: LLIAINPQV (peptide)
peptide: LLIAINPQV
B10: IQDAEGAIHEV (peptide)
peptide: IQDAEGAIHEV
B11: AVDPVSGSLYV (peptide)
peptide: AVDPVSGSLYV
B12: HLATVKLLV (peptide)
peptide: HLATVKLLV
B13: AIYEGVGWNV (peptide)
peptide: AIYEGVGWNV
B14: TLWPATPPKA (peptide)
peptide: TLWPATPPKA
B15: SMLNNIINL (peptide)
peptide: SMLNNIINL
B16: SLYGLGGSKRISI (peptide)
peptide: SLYGLGGSKRISI
B17: FLHEPFSSV (peptide)
peptide: FLHEPFSSV
B18: TLTDEINFL (peptide)
peptide: TLTDEINFL
B19: GLWSSIFSL (peptide)
peptide: GLWSSIFSL
B20: KLPEPCPSTV (peptide)
peptide: KLPEPCPSTV
B21: SLVSYLDKV (peptide)
peptide: SLVSYLDKV
B22: PVCPPGGIQEV (peptide)
peptide: PVCPPGGIQEV
B23: VLFSSPPVI (peptide)
peptide: VLFSSPPVI
B24: RIMEGIPTV (peptide)
peptide: RIMEGIPTV
B25: ALVGDVILTV (peptide)
peptide: ALVGDVILTV
B26: SIWPALTQV (peptide)
peptide: SIWPALTQV
B27: RLLPDLDEV (peptide)
peptide: RLLPDLDEV
B28: ALAKLLPLL (peptide)
peptide: ALAKLLPLL
B29: SLCPPGGIQEV (peptide)
peptide: SLCPPGGIQEV
B30: TLASLGYAVV (peptide)
peptide: TLASLGYAVV

These binders were tested against T1, HLA-A*02:01 (human) (assay: UV-ligand exchange, anti-b2m ELISA; grade of peptide exchange yield (>10% = +; >20% = ++; >50 = +++; >75% = ++++)).
T1 construct: Peptide-receptive HLA-A*02:01 monomer obtained by UV cleavage of a UV-sensitive ligand; captured on streptavidin plates; also called peptide-receptive MHC molecules; MHC class I
Description: Candidate peptides for T cell based therapies according to the present invention were further tested for their MHC binding capacity (affinity). The individual peptide-MHC complexes were produced by UV-ligand exchange, where a UV-sensitive peptide is cleaved upon UV-irradiation, and exchanged with the peptide of interest as analyzed. Only peptide candidates that can effectively bind and stabilize the peptide-receptive MHC molecules prevent dissociation of the MHC complexes. To determine the yield of the exchange reaction, an ELISA was performed based on the detection of the light chain (β2m) of stabilized MHC complexes. The assay was performed as generally described in Rodenko et al. (Rodenko et al., 2006).
96 well MAXISorp plates (NUNC) were coated over night with 2 ug/ml streptavidin in PBS at room temperature, washed 4× and blocked for 1 h at 37° C. in 2% BSA containing blocking buffer. Refolded HLA-A*02:01/MLA-001 monomers served as standards, covering the range of 15-500 ng/ml. Peptide-MHC monomers of the UV-exchange reaction were diluted 100-fold in blocking buffer. Samples were incubated for 1 h at 37° C., washed four times, incubated with 2 ug/ml HRP conjugated anti-β2m for 1 h at 37° C., washed again and detected with TMB solution that is stopped with […]. Absorption was measured at 450 nm. Candidate peptides that show a high exchange yield (preferably higher than 50%, most preferred higher than 75%) are generally preferred for a generation and production of antibodies or fragments thereof, and/or T cell receptors or fragments thereof, as they show sufficient avidity to the MHC molecules and prevent dissociation of the MHC complexes.
With B1 the peptide exchange yield was over 75%. B2 was tested, and the peptide exchange yield was over 75%. In the case of B3, the peptide exchange yield is reported as 50 to 75%. B4 was tested, and the peptide exchange yield was over 75%. B5 was tested, and the peptide exchange yield was over 75%. Binder B6 has a peptide exchange yield of 50 to 75%. Work on B7 yielded a peptide exchange yield of over 75%. Binder B8 has a peptide exchange yield of 50 to 75%. Binder B9 has a peptide exchange yield of over 75%. Work on B10 yielded a peptide exchange yield of over 75%. For B11, the peptide exchange yield was over 75%. B12 was tested, and the peptide exchange yield was over 75%. In the case of B13, the peptide exchange yield is reported as over 75%. B14 gave a peptide exchange yield of 50 to 75%. B15 was tested, and the peptide exchange yield was 50 to 75%. In the case of B16, the peptide exchange yield is reported as 50 to 75%. Binder B17 has a peptide exchange yield of over 75%. B18 was tested, and the peptide exchange yield was over 75%. Work on B19 yielded a peptide exchange yield of over 75%. B20 showed a peptide exchange yield of 50 to 75%. In the case of B21, the peptide exchange yield is reported as over 75%. In the case of B22, the peptide exchange yield is reported as 50 to 75%. For B23, the peptide exchange yield was over 75%. B24 was tested, and the peptide exchange yield was over 75%. B25 was tested, and the peptide exchange yield was over 75%. In the case of B26, the peptide exchange yield is reported as over 75%. For B27, the peptide exchange yield was over 75%. Binder B28 has a peptide exchange yield of over 75%. In the case of B29, the peptide exchange yield is reported as over 75%. B30 was tested, and the peptide exchange yield was 50 to 75%.
